Measurements taken from patent US20150086555A1.
Substitutions are numbered along the chain they refer to.

B1: TCN-555 (5246_L16) (antibody, V domains shown)
VH: QVQLVQSGAEVKRPGSSVKVSCTASGGIFRKNAISWVRQAPGQGLEWMGGIIAVFNTANYAQKFQNRVKITADESGNTAYMELSSLTSDDTAVYYCASHPKYFYGSGSYPDFWGQGTLVTVSS
VL: QSALTQPRSVSGSPGQSITISCTGGSSDIGASNSVSWYQQHPGKAPKLVIFDVTERPSGVPHRFSGSKSGNTASLTVSGLQPDDEADYFCCAYGGKYLVVFGGGTKVTVL
B2: TCN-557 (5081_A04) (antibody, V domains shown)
VH: QVQLVQSGAEVKKPGASVKVSCKASGHTFTGYYIHWVRQAPGQGLEWMGWINPDSGATSSAQNFQGRVTMTGDTSSSTAYMELSRLSFDDTAVYYCARVLFTSPFDFWGEGTLVTVSS
VL: QAVVTQEPSLAVSPGGTVTLTCGSSTGAVTRGHYPYWFQQKPGQAPRALIYDSAGNRHSWTPARFSGSLLGGKAALTLSGAQPEDEAEYYCLLSYSGVWVFGGGTKLTVL
B3: TCN-550 (5096_F06) (antibody, V domains shown)
VH: QVQLQESGPGLVKPSETLSLTCTVSGASINSHYWSWIRQPPGKGLEWIGYVYYSGSTTYNPSLKSRVTLSVDTSKNQFSLNLSSVTAADTAFYYCARHPYDVLTGSGDWFDPWGQGTLVTVSS
VL: SYVLTQAPSVSVAPGQTARITCGGNAIGSKKVHWYQHKAGQAPVLVVYDDTDRPSGIPERFSGSNSWSTATLTINRVEAGDEADYYCQVWDFTIDHVVFGGGTKLTVL
B4: TCN-552 (5249_I23) (antibody, V domains shown)
VH: QVQVVQSGAEVKKPGSSVRVSCQASGGTFMNYAIIWVRRAPGQGLEWMGGIIPVFPTPNYAQMFQGRVTISTDESRSTSFLELTNLRYEDTAVYYCARRIYHGGNSGFDFWGQGTLVTVSS
VL: EIVLTQSPATLSLSPGERATLSCRASQSVGNYLAWYQQKPGQAPRLLIYDSSNRAPGIPARFSGSGSGTDFTLTISSLAPEDFAVYYCQQRSKWPPMYSFGHGTKLEIK
B5: TCN-553 (5261_C18) (antibody, V domains shown)
VH: QVQVVQSGTEVKKPGSSVKVSCQTSGGRFMSYAITWVRQAPGQGLEWMGGIVPVFGTANYAQKFQGRVTITTDDSTRTAYMELSSLRSEDTAVYYCGFRYGSGYGFDSWGQGTLVTVSS
VL: EIVLTQSPGTLSLSPGERATLSCRASQSVSSSYLAWYQKKPGQAPRLLIYGASTRATGIPDRFTGSGSGTDFTLSISRLEPEDFAVYYCQHFGTSVFTFGGGTKVEIK
B6: TCN-563 (5237_B21) (antibody, V domains shown)
VH: B1 VH with V5A, N66G, T87R
VL: B1 VL with I18V, G25S, I29V, F51Y, D83E

What follows are binders tested against recombinant homotrimeric HA A/duck/Yangzhou/02/05 H8N4 (Influenza A virus A/duck/Yangzhou/02/2005(H8N4)) (assay: protein microarray, purified IgG, trimeric HA). Conditions: remark: other sources report otherwise.

In order of falling Trimeric HA Binding: RLU:
1. B2  27200 RLU
2. B1  375 RLU
3. B3  256 RLU

What follows are binders tested against recombinant homotrimeric HA A/swine/Ontario/01911-2/99 H4N6 (Influenza A virus A/Swine/Ontario/01911-2/99 (H4N6)) (assay: protein microarray, purified IgG, trimeric HA). Conditions: remark: other sources report otherwise.

B2 gave a Trimeric HA Binding: RLU of 19200 RLU.

These binders were tested against recombinant soluble homotrimeric HA, A/Wisconsin/67/05 H3N2 (Influenza A virus A/Wisconsin/67/2005(H3N2)) (assay: microarray, transfection SN IgG, trimeric HA). Conditions: remark: other sources report otherwise.

In order of falling Trimeric HA Binding: RLU:
1. B2  46100 RLU
2. B3  37800 RLU
3. B5  25200 RLU
4. B4  18500 RLU
5. B1  14700 RLU

These binders were tested against recombinant soluble homotrimeric HA, A/Hong Kong/156/97 H5N1 (Influenza A virus A/Hong Kong/156/97 (H5N1)) (assay: microarray, transfection SN IgG, trimeric HA). Conditions: remark: other sources report otherwise.

In order of falling Trimeric HA Binding: RLU:
1. B4  36300 RLU
2. B5  36300 RLU
3. B1  36300 RLU
4. B2  27100 RLU
5. B3  955 RLU

What follows are binders tested against recombinant soluble homotrimeric HA, A/Japan/305/57 H2N2 (Influenza A virus A/Japan/305/1957(H2N2)) (assay: microarray, transfection SN IgG, trimeric HA). Conditions: remark: other sources report otherwise.

In order of rising Trimeric HA Binding: RLU:
1. B3  731 RLU
2. B1  16700 RLU
3. B2  27300 RLU
4. B5  39800 RLU
5. B4  52000 RLU

These binders were tested against recombinant soluble homotrimeric HA, A/Netherlands/219/03 H7N7 (Influenza A virus A/Netherlands/219/03(H7N7)) (assay: microarray, transfection SN IgG, trimeric HA). Conditions: remark: other sources report otherwise.

In order of rising Trimeric HA Binding: RLU:
1. B3  3250 RLU
2. B4  7420 RLU
3. B5  7530 RLU
4. B2  53700 RLU

Each binder was assayed against recombinant soluble homotrimeric HA, A/duck/Yangzhou/02/05 H8N4 (Influenza A virus A/duck/Yangzhou/02/2005(H8N4)) (assay: microarray, transfection SN IgG, trimeric HA). Conditions: remark: other sources report otherwise.

In order of rising Trimeric HA Binding: RLU:
1. B3  4710 RLU
2. B1  8540 RLU
3. B5  12500 RLU
4. B4  15900 RLU
5. B2  24000 RLU

The binders below were run against recombinant soluble homotrimeric HA, A/Vietnam/1203/04 H5N1 (Influenza A virus A/VietNam/1203/2004(H5N1)) (assay: microarray, transfection SN IgG, trimeric HA). Conditions: remark: other sources report otherwise.

In order of falling Trimeric HA Binding: RLU:
1. B3  41900 RLU
2. B2  21300 RLU
3. B1  19300 RLU
4. B5  19200 RLU
5. B4  18500 RLU

These binders were tested against recombinant soluble homotrimeric HA, A/Egypt/3300-NAMRU3/08 H5N1 (Influenza A virus A/Egypt/3300-NAMRU3/2008(H5N1)) (assay: microarray, transfection SN IgG, trimeric HA). Conditions: remark: other sources report otherwise.

In order of falling Trimeric HA Binding: RLU:
1. B3  26800 RLU
2. B2  26400 RLU
3. B4  21200 RLU
4. B1  20000 RLU
5. B5  19500 RLU

These binders were tested against recombinant soluble homotrimeric HA, A/Anhui/1/05 H5N1 (Influenza A virus A/Anhui/1/2005(H5N1)) (assay: microarray, transfection SN IgG, trimeric HA). Conditions: remark: other sources report otherwise.

In order of falling Trimeric HA Binding: RLU:
1. B2  20000 RLU
2. B1  12200 RLU
3. B4  9010 RLU
4. B5  8550 RLU
5. B3  7680 RLU

Each binder was assayed against recombinant soluble homotrimeric HA, A/Indonesia/5/05 H5N1 (Influenza A virus A/Indonesia/5/2005(H5N1)) (assay: microarray, transfection SN IgG, trimeric HA). Conditions: remark: other sources report otherwise.

In order of falling Trimeric HA Binding: RLU:
1. B4  43400 RLU
2. B1  33900 RLU
3. B5  31200 RLU
4. B2  22200 RLU
5. B3  9000 RLU

The binders below were run against recombinant soluble homotrimeric HA, A/Solomon Islands/3/06 H1N1 (Influenza A virus A/Solomon Islands/3/2006(H1N1)) (assay: microarray, transfection SN IgG, trimeric HA). Conditions: remark: other sources report otherwise.

In order of falling Trimeric HA Binding: RLU:
1. B5  49600 RLU
2. B4  48600 RLU
3. B1  44600 RLU
4. B2  27000 RLU
5. B3  758 RLU

Each binder was assayed against recombinant soluble homotrimeric HA, A/South Carolina/1/18 H1N1 (Influenza A virus A/South Carolina/1/18 (H1N1)) (assay: microarray, transfection SN IgG, trimeric HA). Conditions: remark: other sources report otherwise.

In order of rising Trimeric HA Binding: RLU:
1. B3  1010 RLU
2. B4  37400 RLU
3. B5  41300 RLU
4. B2  44900 RLU
5. B1  48000 RLU

Each binder was assayed against recombinant soluble homotrimeric HA, A/northern shoveler/California/HKWF115/07 H6N4 (Influenza A virus A/northern shoveler/California/HKWF115/2007(H6N1)) (assay: microarray, transfection SN IgG, trimeric HA). Conditions: remark: other sources report otherwise.

In order of rising Trimeric HA Binding: RLU:
1. B3  2300 RLU
2. B1  28700 RLU
3. B5  32500 RLU
4. B4  43900 RLU
5. B2  49600 RLU

What follows are binders tested against recombinant soluble homotrimeric HA, A/chicken/Vietnam/NCVD-016/08 H5N1 (Influenza A virus A/chicken/Vietnam/NCVD-016/2008(H5N1)) (assay: microarray, transfection SN IgG, trimeric HA). Conditions: remark: other sources report otherwise.

In order of falling Trimeric HA Binding: RLU:
1. B1  35200 RLU
2. B5  34700 RLU
3. B4  34500 RLU
4. B2  23300 RLU
5. B3  1800 RLU

Each binder was assayed against recombinant soluble homotrimeric HA, A/California/4/09 H1N1 (Influenza A virus A/California/04/2009(H1N1)) (assay: microarray, transfection SN IgG, trimeric HA). Conditions: remark: other sources report otherwise.

In order of rising Trimeric HA Binding: RLU:
1. B3  628 RLU
2. B1  20200 RLU
3. B5  23300 RLU
4. B4  23500 RLU
5. B2  44400 RLU

The binders below were run against recombinant soluble homotrimeric HA of A/Anhui/1/05 (H5N1) (Influenza A virus A/Anhui/1/2005(H5N1)) (assay: trimeric HA microarray, transfection supernatant set 2). Conditions: remark: other sources report otherwise.

Work on B6 yielded a Trimeric HA Binding: RLU of 1570 RLU.

What follows are binders tested against T1, recombinant soluble homotrimeric HA of A/Egypt/3300-NAMRU3/08 (H5N1) (Influenza A virus A/Egypt/3300-NAMRU3/2008(H5N1)) in the same assay as above. Conditions: remark: other sources report otherwise.

Binder B6 has a Trimeric HA Binding: RLU of 23900 RLU.

What follows are binders tested against recombinant soluble homotrimeric HA of A/Vietnam/1203/04 (H5N1) (Influenza A virus A/VietNam/1203/2004(H5N1)) in the same assay as above. Conditions: remark: other sources report otherwise.

B6 gave a Trimeric HA Binding: RLU of 31500 RLU.

These binders were tested against recombinant soluble homotrimeric HA of A/Netherlands/219/03 (H7N7) (Influenza A virus A/Netherlands/219/03(H7N7)) in the same assay as above. Conditions: remark: other sources report otherwise.

Binder B6 has a Trimeric HA Binding: RLU of 5420 RLU.

The binders below were run against recombinant soluble homotrimeric HA of A/chicken/Vietnam/NCVD-016/08 (H5N1) (Influenza A virus A/chicken/Vietnam/NCVD-016/2008(H5N1)) in the same assay as above. Conditions: remark: other sources report otherwise.

B6 showed a Trimeric HA Binding: RLU of 36300 RLU.

These binders were tested against recombinant soluble homotrimeric HA of A/Japan/305/57 (H2N2) (Influenza A virus A/Japan/305/1957(H2N2)) in the same assay as above. Conditions: remark: other sources report otherwise.

B6 gave a Trimeric HA Binding: RLU of 11200 RLU.

These binders were tested against recombinant soluble homotrimeric HA of A/California/4/09 (H1N1) (Influenza A virus A/California/04/2009(H1N1)) in the same assay as above. Conditions: remark: other sources report otherwise.

With B6 the Trimeric HA Binding: RLU was 21200 RLU.

The binders below were run against recombinant soluble homotrimeric HA of A/South Carolina/1/18 (H1N1) (Influenza A virus A/South Carolina/1/18 (H1N1)) in the same assay as above. Conditions: remark: other sources report otherwise.

B6 was tested, and the Trimeric HA Binding: RLU was 17800 RLU.

The binders below were run against recombinant soluble homotrimeric HA of A/Solomon Islands/3/06 (H1N1) (Influenza A virus A/Solomon Islands/3/2006(H1N1)) in the same assay as above. Conditions: remark: other sources report otherwise.

B6 gave a Trimeric HA Binding: RLU of 26500 RLU.

These binders were tested against recombinant soluble homotrimeric HA of A/Indonesia/5/05 (H5N1) (Influenza A virus A/Indonesia/5/2005(H5N1)) in the same assay as above. Conditions: remark: other sources report otherwise.

With B6 the Trimeric HA Binding: RLU was 47300 RLU.

These binders were tested against T1, recombinant soluble homotrimeric HA of … (assay: HA microarray, BCC supernatant). Conditions: remark: other sources report otherwise.

In order of falling Trimeric HA Binding: RLU:
1. B1  42700 RLU
2. B4  40000 RLU
3. B6  27500 RLU
4. B5  18800 RLU
